Results published in patent US20150376265A1 (Genentech, published 2015).

Legend:
[1] = biological target: T1, HCMV gH on virions of strain VR1814 (HCMV, UniProt P12824 24-743); assay: cell-based or functional assay
T1 sequence: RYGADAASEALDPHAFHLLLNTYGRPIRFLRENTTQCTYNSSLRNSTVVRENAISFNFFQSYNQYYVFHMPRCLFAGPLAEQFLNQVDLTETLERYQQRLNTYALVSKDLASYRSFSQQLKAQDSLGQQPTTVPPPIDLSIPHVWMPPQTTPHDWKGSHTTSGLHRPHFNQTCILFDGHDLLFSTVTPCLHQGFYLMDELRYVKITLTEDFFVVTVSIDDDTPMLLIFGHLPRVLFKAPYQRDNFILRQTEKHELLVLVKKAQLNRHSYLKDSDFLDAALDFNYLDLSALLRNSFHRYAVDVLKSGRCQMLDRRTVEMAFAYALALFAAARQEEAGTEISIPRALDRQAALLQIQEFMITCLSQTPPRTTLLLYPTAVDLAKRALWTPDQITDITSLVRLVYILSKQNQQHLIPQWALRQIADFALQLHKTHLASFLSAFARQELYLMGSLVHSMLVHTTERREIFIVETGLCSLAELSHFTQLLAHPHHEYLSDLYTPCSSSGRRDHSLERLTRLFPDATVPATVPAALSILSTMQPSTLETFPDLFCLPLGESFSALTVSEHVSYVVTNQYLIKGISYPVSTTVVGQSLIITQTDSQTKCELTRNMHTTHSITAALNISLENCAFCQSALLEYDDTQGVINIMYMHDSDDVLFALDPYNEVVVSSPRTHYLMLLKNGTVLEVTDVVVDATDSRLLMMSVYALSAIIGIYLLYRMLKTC

[2] = biological target: T1, HCMV gH on virions of strain VR1814; assay: cell-based or functional assay; remark: listed apart in the source
[3] = biological target: T1, HCMV gH on virions of strain VR1814; assay: cell-based or functional assay; remark: listed apart in the source
[4] = biological target: T2, soluble baculovirus-expressed gH/gL (HCMV, UniProt P12824 24-720; P16832 31-278); assay: competition phage ELISA: phage-displayed Fab with serially diluted soluble gH/gL, free phage caught on coated gH/gL
T2 construct: also called gH/gL dimer produced in baculovirus; baculovirus expressed, secreted gH/gL
T2 sequence 1: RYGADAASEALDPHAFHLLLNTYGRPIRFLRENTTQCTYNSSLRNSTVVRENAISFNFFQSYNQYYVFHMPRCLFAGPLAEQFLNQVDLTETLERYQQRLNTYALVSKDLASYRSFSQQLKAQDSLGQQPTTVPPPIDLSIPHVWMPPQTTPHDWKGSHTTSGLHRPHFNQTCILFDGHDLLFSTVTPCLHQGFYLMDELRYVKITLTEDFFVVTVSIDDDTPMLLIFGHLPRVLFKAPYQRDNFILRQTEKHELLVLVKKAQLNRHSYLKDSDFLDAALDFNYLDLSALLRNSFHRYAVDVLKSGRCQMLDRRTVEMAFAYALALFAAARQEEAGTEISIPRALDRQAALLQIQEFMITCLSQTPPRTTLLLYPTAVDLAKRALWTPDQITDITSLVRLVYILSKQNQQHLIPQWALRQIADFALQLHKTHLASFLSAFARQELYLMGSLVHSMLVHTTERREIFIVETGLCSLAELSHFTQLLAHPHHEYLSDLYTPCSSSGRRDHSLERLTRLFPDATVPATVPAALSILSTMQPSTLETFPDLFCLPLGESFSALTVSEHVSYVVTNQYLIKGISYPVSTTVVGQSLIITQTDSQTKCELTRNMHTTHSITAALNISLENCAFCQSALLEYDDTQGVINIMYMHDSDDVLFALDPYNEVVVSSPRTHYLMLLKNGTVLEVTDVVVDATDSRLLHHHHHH
T2 sequence 2: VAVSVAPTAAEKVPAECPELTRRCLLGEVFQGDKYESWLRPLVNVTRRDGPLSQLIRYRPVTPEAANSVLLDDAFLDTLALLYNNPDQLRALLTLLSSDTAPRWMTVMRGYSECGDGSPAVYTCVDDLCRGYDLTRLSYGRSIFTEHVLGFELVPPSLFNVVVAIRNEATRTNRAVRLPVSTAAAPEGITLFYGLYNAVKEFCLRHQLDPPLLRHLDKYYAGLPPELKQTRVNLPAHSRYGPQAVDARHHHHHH

Binder	IC50 [4] [nM]	further results
MSL-109 (antibody, V domains shown) VH: EEQVLESGGGLVKPGGSLRLSCAASGFTFSPYSVFWVRQAPGKGLEWVSSINSDSTYKYYADSVKGRFTISRDNAENSIFLQMNSLRAEDTAVYYCARDRSYYAFSSGSLSDYYYGLDVWGQGTLVTVSS VL: DIVMTQSPLSLSVTPGEPASISCRSSQSLLHTNGYNYLDWYVQKPGQSPQLLIYLASNRASGVPDRFSGSGSGTDFTLKISRVETEDVGVYYCMQALQIPRTFGQGTKVEIK		Epithelial EC50 (first pair of columns), neutralisation [1]: 0.3 µg/mL; Epithelial EC50 (second pair of columns), neutralisation [1]: 0.48 µg/mL; Fibroblast EC50, neutralisation [1]: 0.73 µg/mL; MDM EC50, neutralisation [1]: 0.04 µg/mL; EC50, neutralisation of HCMV strain VR1814 on endothelial cells [2]: 0.0764 µg/mL; EC50, neutralisation of HCMV strain VR1814 on epithelial cells [2]: 0.164 µg/mL; EC50, neutralisation of HCMV strain VR1814 on fibroblasts [2]: 0.389 µg/mL
MSL-109 Fab fragment (WT) (Fab, V domains shown) VH: EEQVLESGGGLVKPGGSLRLSCAASGFTFSPYSVFWVRQAPGKGLEWVSSINSDSTYKYYADSVKGRFTISRDNAENSIFLQMNSLRAEDTAVYYCARDRSYYAFSSGSLSDYYYGLDVWGQGTLVTVSS VL: DIVMTQSPLSLSVTPGEPASISCRSSQSLLHTNGYNYLDWYVQKPGQSPQLLIYLASNRASGVPDRFSGSGSGTDFTLKISRVETEDVGVYYCMQALQIPRTFGQGTKVEIK		EC50, inhibition of HCMV entry into ARPE-19 cells, Fab fragments from E. coli [3]: 6.2 nM
MSL-109 Fab variant H2-D53T (Fab, name in Kabat numbering, V domains shown) VH: EEQVLESGGGLVKPGGSLRLSCAASGFTFSPYSVFWVRQAPGKGLEWVSSINSTSTYKYYADSVKGRFTISRDNAENSIFLQMNSLRAEDTAVYYCARDRSYYAFSSGSLSDYYYGLDVWGQGTLVTVSS VL: DIVMTQSPLSLSVTPGEPASISCRSSQSLLHTNGYNYLDWYVQKPGQSPQLLIYLASNRASGVPDRFSGSGSGTDFTLKISRVETEDVGVYYCMQALQIPRTFGQGTKVEIK	0.06	
MSL-109 Fab variant H2-D53M (Fab, name in Kabat numbering, V domains shown) VH: EEQVLESGGGLVKPGGSLRLSCAASGFTFSPYSVFWVRQAPGKGLEWVSSINSMSTYKYYADSVKGRFTISRDNAENSIFLQMNSLRAEDTAVYYCARDRSYYAFSSGSLSDYYYGLDVWGQGTLVTVSS VL: DIVMTQSPLSLSVTPGEPASISCRSSQSLLHTNGYNYLDWYVQKPGQSPQLLIYLASNRASGVPDRFSGSGSGTDFTLKISRVETEDVGVYYCMQALQIPRTFGQGTKVEIK	0.05	
MSL-109 Fab variant H2-D53L/T55R (Fab, name in Kabat numbering, V domains shown) VH: EEQVLESGGGLVKPGGSLRLSCAASGFTFSPYSVFWVRQAPGKGLEWVSSINSLSRYKYYADSVKGRFTISRDNAENSIFLQMNSLRAEDTAVYYCARDRSYYAFSSGSLSDYYYGLDVWGQGTLVTVSS VL: DIVMTQSPLSLSVTPGEPASISCRSSQSLLHTNGYNYLDWYVQKPGQSPQLLIYLASNRASGVPDRFSGSGSGTDFTLKISRVETEDVGVYYCMQALQIPRTFGQGTKVEIK	0.02	
MSL-109 Fab variant H2-D53F/T55R (Fab, name in Kabat numbering, V domains shown) VH: EEQVLESGGGLVKPGGSLRLSCAASGFTFSPYSVFWVRQAPGKGLEWVSSINSFSRYKYYADSVKGRFTISRDNAENSIFLQMNSLRAEDTAVYYCARDRSYYAFSSGSLSDYYYGLDVWGQGTLVTVSS VL: DIVMTQSPLSLSVTPGEPASISCRSSQSLLHTNGYNYLDWYVQKPGQSPQLLIYLASNRASGVPDRFSGSGSGTDFTLKISRVETEDVGVYYCMQALQIPRTFGQGTKVEIK	0.01	
MSL-109 Fab variant H2-D53M/T55R (Fab, name in Kabat numbering, V domains shown) VH: EEQVLESGGGLVKPGGSLRLSCAASGFTFSPYSVFWVRQAPGKGLEWVSSINSMSRYKYYADSVKGRFTISRDNAENSIFLQMNSLRAEDTAVYYCARDRSYYAFSSGSLSDYYYGLDVWGQGTLVTVSS VL: DIVMTQSPLSLSVTPGEPASISCRSSQSLLHTNGYNYLDWYVQKPGQSPQLLIYLASNRASGVPDRFSGSGSGTDFTLKISRVETEDVGVYYCMQALQIPRTFGQGTKVEIK	0.07	
HB2 Fab fragment, H2-D53Q/T55R (HB2) (Fab, name in Kabat numbering, V domains shown) VH: EEQVLESGGGLVKPGGSLRLSCAASGFTFSPYSVFWVRQAPGKGLEWVSSINSQSRYKYYADSVKGRFTISRDNAENSIFLQMNSLRAEDTAVYYCARDRSYYAFSSGSLSDYYYGLDVWGQGTLVTVSS VL: DIVMTQSPLSLSVTPGEPASISCRSSQSLLHTNGYNYLDWYVQKPGQSPQLLIYLASNRASGVPDRFSGSGSGTDFTLKISRVETEDVGVYYCMQALQIPRTFGQGTKVEIK	0.01	
MSL-109 Fab variant H2-D53T/T55R (Fab, name in Kabat numbering, V domains shown) VH: EEQVLESGGGLVKPGGSLRLSCAASGFTFSPYSVFWVRQAPGKGLEWVSSINSTSRYKYYADSVKGRFTISRDNAENSIFLQMNSLRAEDTAVYYCARDRSYYAFSSGSLSDYYYGLDVWGQGTLVTVSS VL: DIVMTQSPLSLSVTPGEPASISCRSSQSLLHTNGYNYLDWYVQKPGQSPQLLIYLASNRASGVPDRFSGSGSGTDFTLKISRVETEDVGVYYCMQALQIPRTFGQGTKVEIK	0.03	
MSL-109 Fab variant H2-T55R (Fab, name in Kabat numbering, V domains shown) VH: EEQVLESGGGLVKPGGSLRLSCAASGFTFSPYSVFWVRQAPGKGLEWVSSINSDSRYKYYADSVKGRFTISRDNAENSIFLQMNSLRAEDTAVYYCARDRSYYAFSSGSLSDYYYGLDVWGQGTLVTVSS VL: DIVMTQSPLSLSVTPGEPASISCRSSQSLLHTNGYNYLDWYVQKPGQSPQLLIYLASNRASGVPDRFSGSGSGTDFTLKISRVETEDVGVYYCMQALQIPRTFGQGTKVEIK	0.17	
MSL-109 Fab variant H2-D53L (Fab, name in Kabat numbering, V domains shown) VH: EEQVLESGGGLVKPGGSLRLSCAASGFTFSPYSVFWVRQAPGKGLEWVSSINSLSTYKYYADSVKGRFTISRDNAENSIFLQMNSLRAEDTAVYYCARDRSYYAFSSGSLSDYYYGLDVWGQGTLVTVSS VL: DIVMTQSPLSLSVTPGEPASISCRSSQSLLHTNGYNYLDWYVQKPGQSPQLLIYLASNRASGVPDRFSGSGSGTDFTLKISRVETEDVGVYYCMQALQIPRTFGQGTKVEIK	0.02	
MSL-109 Fab variant H2-D53S (Fab, name in Kabat numbering, V domains shown) VH: EEQVLESGGGLVKPGGSLRLSCAASGFTFSPYSVFWVRQAPGKGLEWVSSINSSSTYKYYADSVKGRFTISRDNAENSIFLQMNSLRAEDTAVYYCARDRSYYAFSSGSLSDYYYGLDVWGQGTLVTVSS VL: DIVMTQSPLSLSVTPGEPASISCRSSQSLLHTNGYNYLDWYVQKPGQSPQLLIYLASNRASGVPDRFSGSGSGTDFTLKISRVETEDVGVYYCMQALQIPRTFGQGTKVEIK	0.1	
MSL-109 Fab variant H2-D53S/T55R (Fab, name in Kabat numbering, V domains shown) VH: EEQVLESGGGLVKPGGSLRLSCAASGFTFSPYSVFWVRQAPGKGLEWVSSINSSSRYKYYADSVKGRFTISRDNAENSIFLQMNSLRAEDTAVYYCARDRSYYAFSSGSLSDYYYGLDVWGQGTLVTVSS VL: DIVMTQSPLSLSVTPGEPASISCRSSQSLLHTNGYNYLDWYVQKPGQSPQLLIYLASNRASGVPDRFSGSGSGTDFTLKISRVETEDVGVYYCMQALQIPRTFGQGTKVEIK	0.03	
MSL-109 Fab variant H2-D53N (Fab, name in Kabat numbering, V domains shown) VH: EEQVLESGGGLVKPGGSLRLSCAASGFTFSPYSVFWVRQAPGKGLEWVSSINSNSTYKYYADSVKGRFTISRDNAENSIFLQMNSLRAEDTAVYYCARDRSYYAFSSGSLSDYYYGLDVWGQGTLVTVSS VL: DIVMTQSPLSLSVTPGEPASISCRSSQSLLHTNGYNYLDWYVQKPGQSPQLLIYLASNRASGVPDRFSGSGSGTDFTLKISRVETEDVGVYYCMQALQIPRTFGQGTKVEIK	0.06	
